± gives the standard error. Fewer inactive variants are shown than the library holds.
B1: glmS ribozyme (parent)
chain: AUAAAAGCGCCAGAACUACAGAAAUGUAGUUGACGAGGAGGAGGUUUAUCGAAUUUUCGGCGGAUGCCUCCAAA

Assays:
Details in all cases: with glucosamine-6-phosphate
[1] = variants of: B1; experiment: self-cleavage kobs at 40 uM GlcN6P; higher = faster cleavage; RNA array
How it was run: (§1)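 kcat and KM were obtained from weighted Michaelis–Menten fits across concentrations of kobs values. Those came from one- or two-exponential decay fits to per-tile medians normalised to baseline and to non-cleaving reference variants. The variants were barcoded ribozymes transcribed in situ by E. coli RNA polymerase on sequenced MiSeq chips and tracked through a hybridised Cy3 probe at 37 °C, with 40 μM to 10 mM glucosamine-6-phosphate in HEPES/KCl/Mg(OAc)2 buffer flowed in.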

[2] = variants of: B1; experiment: self-cleavage kobs at 2500 uM GlcN6P; higher = faster cleavage; RNA array
How it was run: as §1

[3] = variants of: B1; experiment: self-cleavage kobs at 10000 uM GlcN6P; higher = faster cleavage; RNA array
How it was run: as §1

[4] = variants of: B1; experiment: self-cleavage kobs at 160 uM GlcN6P; higher = faster cleavage; RNA array
How it was run: as §1

[5] = variants of: B1; experiment: self-cleavage kobs at 640 uM GlcN6P; higher = faster cleavage; RNA array
How it was run: as §1

Row | Variant | self-cleavage kobs at 40 uM GlcN6P [1] [s⁻¹] | self-cleavage kobs at 2500 uM GlcN6P [2] [s⁻¹] | self-cleavage kobs at 10000 uM GlcN6P [3] [s⁻¹] | self-cleavage kobs at 160 uM GlcN6P [4] [s⁻¹] | self-cleavage kobs at 640 uM GlcN6P [5] [s⁻¹]
1 | G29C G63U | < 1e-05 | < 1e-05 | < 1e-05 | – | –
2 | U30C G41C C61A C71U | < 1e-05 | – | < 1e-05 | – | –
3 | G7A A33U A52U C70U | < 1e-05 | < 1e-05 | – | – | –
4 | A42G G43C U45G A64U | < 1e-05 | – | < 1e-05 | – | –
5 | G29A A48G U49G G62C | < 1e-05 | < 1e-05 | – | < 1e-05 | –
6 | A15C G35A G51A C68A | < 1e-05 | – | < 1e-05 | – | < 1e-05
7 | C8A U30G U31C | < 1e-05 | < 1e-05 | < 1e-05 | – | –
8 | A64G C68U | < 1e-05 | 2.62e-05 ± 9e-06 | 3.13e-05 ± 9.2e-06 | < 1e-05 | –
9 | A14G U69C C70U | 0.000104 ± 3.2e-05 | – | 0.00316 ± 0.00074 | – | –
10 | A6G A48U | < 1e-05 | < 1e-05 | < 1e-05 | < 1e-05 | < 1e-05
11 | A33G G60C C61U | < 1e-05 | – | < 1e-05 | – | < 1e-05
12 | G37A U56G | 5.06e-05 ± 1.6e-05 | – | 0.00174 ± 0.00028 | – | –
13 | A6U A12C U56A G62A | < 1e-05 | – | – | – | –
14 | A14G A15C U54G | 0.000827 ± 0.00016 | – | 0.048 ± 0.017 | – | –
15 | G9A A42C C71A | < 1e-05 | < 1e-05 | < 1e-05 | < 1e-05 | < 1e-05
16 | G7C U57A | < 1e-05 | – | – | < 1e-05 | –
17 | G35U U45G | < 1e-05 | < 1e-05 | < 1e-05 | < 1e-05 | < 1e-05
18 | A36U G59C | < 1e-05 | – | < 1e-05 | – | < 1e-05
19 | C11U A15U U69G | 6.47e-05 ± 2.5e-05 | – | – | – | –
20 | C10A C11A | < 1e-05 | – | < 1e-05 | – | < 1e-05
21 | A52U A64G C70A | < 1e-05 | – | – | – | –
22 | A36G C71A | < 1e-05 | < 1e-05 | – | < 1e-05 | < 1e-05
23 | A12G A36C G51U | < 1e-05 | – | < 1e-05 | – | –
24 | G7A G41U A42G A52G | < 1e-05 | – | < 1e-05 | – | –
25 | U31G C61U C67U | < 1e-05 | – | – | – | < 1e-05

Row | Variant | self-cleavage kobs at 40 uM GlcN6P [1] [s⁻¹] | self-cleavage kobs at 2500 uM GlcN6P [2] [s⁻¹] | self-cleavage kobs at 10000 uM GlcN6P [3] [s⁻¹] | self-cleavage kobs at 160 uM GlcN6P [4] [s⁻¹] | self-cleavage kobs at 640 uM GlcN6P [5] [s⁻¹]
26 | G40A G63C | < 1e-05 | – | – | – | < 1e-05
27 | G43C C70G | < 1e-05 | < 1e-05 | < 1e-05 | – | < 1e-05
28 | U30A G59U | < 1e-05 | – | – | – | –
29 | A12C A20U C67G | 9.99e-05 ± 2.5e-05 | – | 0.00115 ± 0.00024 | – | –
30 | A33C C71G | < 1e-05 | < 1e-05 | – | – | –
31 | G9C G38U G63A | < 1e-05 | – | – | – | –
32 | U54A U55G | 0.00074 ± 7.7e-05 | 0.0121 ± 0.0021 | 0.0328 ± 0.011 | 0.00127 ± 0.00022 | 0.00651 ± 0.0008
33 | G13U A36U A48G U55C C68G C70U | 0.0002 ± 6.4e-05 | – | 0.000527 ± 0.00022 | – | –
34 | U30G U45A A64C | < 1e-05 | – | 7e-05 ± 1.7e-05 | – | –
35 | U31A U45A G62U C68A | < 1e-05 | – | – | – | –
36 | C11U A12U U65C C68G | < 1e-05 | – | < 1e-05 | – | –
37 | C11G U31A U49G | < 1e-05 | – | – | – | –
38 | G7A G29A U55C G60U | < 1e-05 | < 1e-05 | – | – | –
39 | G13A G44A U65A | < 1e-05 | – | – | – | –
40 | G32C C67A | < 1e-05 | – | 2.83e-05 ± 9.7e-06 | – | –
41 | A14C A15U U47C | < 1e-05 | – | – | – | –
42 | G7U G35C U57A | < 1e-05 | < 1e-05 | – | – | –
43 | G35A A48U | < 1e-05 | < 1e-05 | < 1e-05 | < 1e-05 | < 1e-05
44 | G51C | < 1e-05 | < 1e-05 | < 1e-05 | < 1e-05 | < 1e-05
45 | G9U C34A | < 1e-05 | – | < 1e-05 | < 1e-05 | < 1e-05
46 | U47A C71U | 0.000701 ± 8.3e-05 | 0.00535 ± 0.001 | 0.0342 ± 0.0081 | 0.0018 ± 0.0003 | 0.00323 ± 0.00057
47 | C16A U57G | < 1e-05 | – | – | – | –
48 | C50G C67A C71A | 5.33e-05 ± 1.4e-05 | 8.26e-05 ± 1.6e-05 | 6e-05 ± 1.6e-05 | 0.000226 ± 3.6e-05 | 0.0002 ± 3.8e-05
49 | A42G C50A A64G C70G | < 1e-05 | – | – | – | –
50 | G9U A36G | < 1e-05 | < 1e-05 | < 1e-05 | – | –
